The record followed here is paper PMC7610691 (Nature structural & molecular biology, 2020).

The labels stand for the following.
B1: Ycs4 (S. cerevisiae condensin HEAT-repeat subunit) (natural protein)
chain: MSGFSLSEYLTKFQTTDRESYPRLQDPSRELNVIIDQLAVSPEQIDASPDSLEALIDLCHDFPHLTPKLQTQLSYLISSSLSNLSKDIKANLSSNVNFTEIGGLIPQWKRHLEEYGYLIQVLLTFLQDELHKVSSQSTNLNRSAKNSKNDSANVELFKRDCNQMENLLESITKLLEINLSKIFQTTPEKDLFIGLFTRPLFVLLEIEPVTKVSSLKMFIQRILAMCVKNHGQSSSIQSSLMTNLTYFLHLSVFNAELLKLLNDEYNYPQLTEDILKEISTRVFNAKDTTGPKAISNFLIKLSELSPGIMLRQMNLVITLLNNSSITLRCSVVEACGNIVAELAQDPQTMEHYKQQIAVLIELLEERFQDSNPYVRTKAIQGCSKICDLSSKFNKSKAKFTSLAVRSLQDRSSLVRRNSVKLLSKLLLKHPFKAIHGSQLRLSEWEEYLKGSESQLNSTLKKVESQETLNDTIERSLIEEEVEQDEGQCRTELEGSFNKSAELSRIENEVENINATNTSVLMKLKLMIVYYKDAISFIKEIHKSIELISNLLFSKNRNEVLESMDFLVLADAFDIELSEFGIKKMLHLVWMKGTNDEGTSISVHLIECYKQLFLTAPDSCNMQEKAAHIAKNLINLSIGASIADLASLEQLLGMMYEQKLIDQHVINILWAIYNSASKASMQKEQNVNNRDSEKGFSKEQIHGSIIILGMLSLADNEIALKGLESLLNIGLGAVGLKDLTLCRYSCLALERMVPKRSTIITKAINQELEDVAVKKLYAIIINYTKDNEYYPMCEQALSALFTISSKPDILATDLIREKTMMTFGKPEEEDSILSLEQSSRVVSLSQLLFIVGQVAIKTLVYLEKCEAEFKKRKIEAETRNGKVKNQGADVTNTTQDNGGDKELEMIGGTNEDDFTDAIQFVKENELLFGEKSILGKFCPIVEEIVSNSSRFSDPMLQRTATLCLEKLMCLSSKYCEKSLPLLITVMEKSPDPTIRSNAVLGLGDMAVCFNNLVDENTDYLYRRLHDENLMVQRTCLMTVTFLILAGQVKVKGQLGEMAKCLDNPDQGISDMCRLFFTELASKDNAIYNGFIDIFSNLSSDDLLGKESFKKIIKFLLTFIDKERHQKQLNEKLVGRLRKCETQKQWDDIAFVLNNLPYKNEDVTALLEQGFKVVSAKE

In experiment [1] the target is T1, Smc4 (S. cerevisiae condensin subunit) (S. cerevisiae, UniProt Q12267 1-1418).
T1 sequence: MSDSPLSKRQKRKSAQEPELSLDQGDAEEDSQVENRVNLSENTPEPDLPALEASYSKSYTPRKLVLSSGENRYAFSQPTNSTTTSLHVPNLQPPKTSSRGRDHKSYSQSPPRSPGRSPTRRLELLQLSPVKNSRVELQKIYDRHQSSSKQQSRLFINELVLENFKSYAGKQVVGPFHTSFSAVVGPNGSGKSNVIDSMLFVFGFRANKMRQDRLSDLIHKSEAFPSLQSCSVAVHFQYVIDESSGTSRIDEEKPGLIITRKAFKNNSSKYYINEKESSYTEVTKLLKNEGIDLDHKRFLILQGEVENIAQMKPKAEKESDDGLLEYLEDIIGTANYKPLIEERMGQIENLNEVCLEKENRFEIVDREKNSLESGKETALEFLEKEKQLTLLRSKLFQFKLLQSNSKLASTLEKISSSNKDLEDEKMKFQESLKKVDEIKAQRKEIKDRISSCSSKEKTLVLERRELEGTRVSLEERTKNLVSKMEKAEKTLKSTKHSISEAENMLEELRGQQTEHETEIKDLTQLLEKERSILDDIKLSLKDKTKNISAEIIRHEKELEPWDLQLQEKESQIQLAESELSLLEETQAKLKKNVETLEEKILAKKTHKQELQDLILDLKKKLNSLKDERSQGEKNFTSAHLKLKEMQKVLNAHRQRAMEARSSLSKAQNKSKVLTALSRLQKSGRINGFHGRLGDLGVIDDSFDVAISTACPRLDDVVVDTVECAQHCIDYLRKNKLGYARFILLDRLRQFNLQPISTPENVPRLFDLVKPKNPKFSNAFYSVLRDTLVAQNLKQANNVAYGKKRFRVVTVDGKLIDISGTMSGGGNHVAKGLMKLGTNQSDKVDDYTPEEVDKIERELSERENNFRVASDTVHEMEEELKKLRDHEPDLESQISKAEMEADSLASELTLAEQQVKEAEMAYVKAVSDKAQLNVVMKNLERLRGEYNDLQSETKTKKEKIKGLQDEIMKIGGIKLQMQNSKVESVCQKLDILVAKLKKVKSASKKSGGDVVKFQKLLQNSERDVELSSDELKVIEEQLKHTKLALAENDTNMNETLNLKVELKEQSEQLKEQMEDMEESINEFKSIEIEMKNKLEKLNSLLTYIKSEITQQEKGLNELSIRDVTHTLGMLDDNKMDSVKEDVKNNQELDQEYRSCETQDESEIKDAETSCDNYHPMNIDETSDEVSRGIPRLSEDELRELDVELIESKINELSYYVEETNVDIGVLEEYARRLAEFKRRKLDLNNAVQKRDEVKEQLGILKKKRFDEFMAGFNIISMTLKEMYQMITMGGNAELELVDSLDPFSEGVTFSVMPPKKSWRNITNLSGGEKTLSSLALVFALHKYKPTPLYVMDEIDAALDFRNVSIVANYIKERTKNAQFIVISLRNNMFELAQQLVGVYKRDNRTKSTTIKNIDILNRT
Nature of the experiment: cryo-EM structure.

Experiment [2] deals with B1. Kind of experiment: cross-linking.

For B1, in experiment [1], the binding result is recorded as “binds”.

B2: Smc2 (S. cerevisiae condensin subunit) (natural protein)
chain: MKVEELIIDGFKSYATRTVITDWDPQFNAITGLNGSGKSNILDAICFVLGIASMSTVRASSLQDLIYKRGQAGVTKASVTIVFDNTDKSNSPIGFTNSPQISVTRQVVLGGTSKYLINGHRAPQQSVLQLFQSVQLNINNPNFLIMQGKITKVLNMKPSEILSLIEEAAGTKMFEDRREKAERTMSKKETKLQENRTLLTEEIEPKLEKLRNEKRMFLEFQSTQTDLEKTERIVVSYEYYNIKHKHTSIRETLENGETRMKMLNEFVKKTSEEIDSLNEDVEEIKLQKEKELHKEGTISKLENKENGLLNEISRLKTSLSIKVENLNDTTEKSKALESEIASSSAKLIEKKSAYANTEKDYKMVQEQLSKQRDLYKRKEELVSTLTTGISSTGAADGGYNAQLAKAKTELNEVSLAIKKSSMKMELLKKELLTIEPKLKEATKDNELNVKHVKQCQETCDKLRARLVEYGFDPSRIKDLKQREDKLKSHYYQTCKNSEYLKRRVTNLEFNYTKPYPNFEASFVHGVVGQLFQIDNDNIRYATALQTCAGGRLFNVVVQDSQTATQLLERGRLRKRVTIIPLDKIYTRPISSQVLDLAKKIAPGKVELAINLIRFDESITKAMEFIFGNSLICEDPETAKKITFHPKIRARSITLQGDVYDPEGTLSGGSRNTSESLLVDIQKYNQIQKQIETIQADLNHVTEELQTQYATSQKTKTIQSDLNLSLHKLDLAKRNLDANPSSQIIARNEEILRDIGECENEIKTKQMSLKKCQEEVSTIEKDMKEYDSDKGSKLNELKKELKLLAKELEEQESESERKYDLFQNLELETEQLSSELDSNKTLLHNHLKSIESLKLENSDLEGKIRGVEDDLVTVQTELNEEKKRLMDIDDELNELETLIKKKQDEKKSSELELQKLVHDLNKYKSNTNNMEKIIEDLRQKHEFLEDFDLVRNIVKQNEGIDLDTYRERSKQLNEKFQELRKKVNPNIMNMIENVEKKEAALKTMIKTIEKDKMKIQETISKLNEYKRETLVKTWEKVTLDFGNIFADLLPNSFAKLVPCEGKDVTQGLEVKVKLGNIWKESLIELSGGQRSLIALSLIMALLQFRPAPMYILDEVDAALDLSHTQNIGHLIKTRFKGSQFIVVSLKEGMFANANRVFRTRFQDGTSVVSIM
As for B2, the binding result in experiment [1] and in experiment [2] was “binds” in each case.
